Test results from the domain aggregation screens of Martell et al. (2025).

Experiment: soluble fraction after stress (log2 fold change); higher = more stays soluble; pooled small domains, quantitative proteomics
Details: stress: pH 4
Summary of the method: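 Small protein domains from pooled custom libraries were exposed to pH 4, then quantified with high-throughput quantitative proteomics. The fold change in how much of each domain remains soluble is read as aggregation propensity. It is given as log2, with higher values meaning more stayed soluble.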

Sequence | soluble fraction (log2)
HMETFNMTQKEITRLRVINQAIDKVITIREAAELLGLSERQVIRLKGGVEKFGPAFIIHKNRGRKP | -0.265
HMETGLSNYEFKRIREQAEALLSDGQVRRINDLVDSIKNENAEKVIRVIRFLIDTEELILEDDRVSAKKS | -1.42
HMETIVGIDPDSKKKIVLKKGIKGRPDYLSFNKKNYSLPSELKEKNVSLEQALEIINDKKSNKKKIK | 0.201
HMETLSKVGSTGSEVRQIQTKLKNWGYFSDKVDGIYGEKTRAAVVWFQKKNGLTADGIAGPATLKAMGIYT | ≥ 0.43
HMETLSVRERMTSIISLLNKHEDIEFSKLFNISEGRLGVVVTFLALLELVKESLVDVIQNQPMSKLYIGKK | -0.376
HMETLTPQEHKVLLLAVKGRTNGEIASELGIAQNTVKNHLAHIYAKMGVGNRTELASEYLRRIH | 0.0578
HMETTEELISKTVPISYADMAALTGILDGVKSARGDIQVDDRTSTIIIHDIQSSIDEMMRLIKILD | -1.13
HMETTMVEIKAEFTIRNRLDIPAMMEKAGYKDRGEFLSVLEKITGNYNWDRDVKKGDTFMVPSKLA | -0.335
HMETVPMIDLRGMTQEQAEKAIVGLGLTVGTVDHSSSDMPAGQVWFQSVEPKDEVAPGTKVNIIISTGS | -0.128
HMETYNLDVGDSAVLQYQNVSRISVGNPDVLDAIPLDKSQILLTGKATGGAALIVWDSKGMHMEKVMVHPA | -0.152
HMETYTVSSKDGYANVRNEATVNSDLIAELKNGTLVTKFKEKGEWYYIEFEREDGTPFDYGYIHKSQLK | -0.224
HMEVALEVPELRGLSMKQATNTLMASGFEVQKVGSGTIYAQFPLPGERLRTGYAVTIRGKTRDLG | 0.047
HMEVAPEKVLEALNELPEIYKIVLNLYAVENMSHKEIAKKLGISLGSSKSRLSRGRVMLNTLLNR | -0.866
HMEVDWLEVEKVIVSSSYSWMENSPKVKLLQEYIGVTADGIYGLGTWGAHRTHAVDLGFINLSYPIP | -1.69
HMEVEADEFQQLLRSGEYVQALDRARANQDIGLRQQQIVQIARHQAASGIQAGAMGSLASLYQF | -0.461
HMEVHLMPGTVLLREYESNEYRVTVTPEGFYDLNGKVFKSLSAVARHITGVNWSGPRFFGVEP | -0.604
HMEVLSYYGSRGQEVVNIQTKLKQWGYYKGNIDGIFGNLTYQAVREFQRKNGLKVDGIVGPETLAALGLPT | -0.479
HMEVPQVETEKVEAKLKEAEVLLVKVTDSSLKANATETLAGLRNNLTLQTMDNNGIMAEAEKLLALLRES | -0.315

Sequence | soluble fraction (log2)
HMEVPTGNHIRRWRKSLDITQVKLSSLSGVAQSIIAKIENETVDPRVSTLRKLVEALSRFENP | -0.358
HMEVQVGKQVRAFRETLGMTVQQFAERTGFSAALLAQIENRMVSPSLGTLVKIANTFGTTVSSFIG | -0.38
HMEVSTDADFEAVGIRAELIPILQKLGFTTVAQLKEVKATKLFNDIPGMRKKLKLDAVQNPTLQEIEGWLK | 0.0606
HMEVTLEEKLSYVEEYAKVHSHFSFRDLLKKQASKTQIVVTFLAILELMKTGKIQITQEHIFDDIVITAK | -0.649
HMEVTYQETLRVLYNAIDKLPPQTKEIILIGLDGKDNNEIAATLNISVNTVKTLKKNAYKTLRELLVD | -0.601
HMEWNPEKQHLLENYITNYSRQLNDTGLFYKNLDWNYIFNLVGVDDQEFLMLKIDEIYDESINVY | -1.63
HMEWNREQLEQIVLQHIRKHGFITRATYTELTGRLKNSALADLKSFAAEGIIKRVGRGNQMHFIVPL | 0.221
HMEWTDHLAEELRSLAVEGEHLEIIANKLGISPGSARAKLVNLNIYNDYQLAHIERLEADTLQAK | -0.967
HMEYFDDEELDRYKGRTSDSFTDDEAEEFREVMMTMHPEEVKAWNRSLILRDVAMPDQIKDDYIMLAG | -2.41
HMEYKYNPADYPYPLNEDIEKVYSAYREKSIGKLEAAVQNLYYTLKQARRDNILSDVKVNEMQQYFLALRN | 0.0584
HMEYNLTLEELNRDLYIRGEIWNVGDVVKTTDGDEGTIIRKGTNYVVFEDLRRVWLHNLEEVK | -1.64
HMEYREFEAMTIRAIATLPPTQGHVIMLSRFEGLDNKEIALRLNLSLQTVKNTLTQGLKELKNKMRKLP | -0.119
HMEYSAAYDRELESIFNLTERGKWEEAEAEVGLLLQQYPEDKTLLRISEWVATQKTILREQAIEDRIRS | -0.48
HMEYSYKLIDLLVDRFSEEGVDPEEAREYINLFHRFSQGLDPDKRDITKYSWDELYRTVNDKKDS | -0.344
HMEYTVNHYPEKHRFEVVEDGLTAYVEYRLRGDALDIIHTIVPKNLEGRGIAATLVETAYKYAKEQ | -1.35
HMFAAIFADDSGFTTRSKRFGPYVEEIAADWQAVKQLSDEDAKQALVPLVKKIELALSTLQQFVSSV | -0.405
HMFAATGTVNTEGSSLRLRAEASTSSSVLKQLSHGTQVDVLSGLVDGWYQVSYKGTTGYVSGEYLTVTE | -0.000126
